According to publication doi:10.1101/2023.10.30.564768 (2023):
Positions count from the first letter of the chain named. Numbers in names are those of the source.

Biological target: T1, His-RecA WT, activated as RecA* (nucleoprotein filament on ssDNA with ATPγS) (E. coli, UniProt P0A7G6 1-353)
T1 chain: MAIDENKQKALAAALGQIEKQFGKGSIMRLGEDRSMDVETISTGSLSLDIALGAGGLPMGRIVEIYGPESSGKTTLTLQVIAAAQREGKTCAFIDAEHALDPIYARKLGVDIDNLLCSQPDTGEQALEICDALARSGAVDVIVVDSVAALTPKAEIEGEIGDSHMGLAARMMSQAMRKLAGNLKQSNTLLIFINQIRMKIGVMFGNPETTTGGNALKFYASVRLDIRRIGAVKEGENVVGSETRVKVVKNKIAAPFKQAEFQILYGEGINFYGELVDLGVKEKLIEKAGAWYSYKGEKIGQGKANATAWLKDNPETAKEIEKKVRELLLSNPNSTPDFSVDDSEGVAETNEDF
Test: FP; competition against LexA-δ

B1: LexA quad-mutant (QM): L89P, Q92W, E152A, K156A (natural protein)
chain: MKALTARQQEVFDLIRDHISQTGMPPTRAEIAQRLGFRSPNAAEEHLKALARKGVIEIVSGASRGIRLLQEEEEGLPLVGRVAAGEPLPAQWHIEGHYQVDPSLFKPNADFLLRVSGMSMKDIGIMDGDLLAVHKTQDVRNGQVVVARIDDAVTVARLKKQGNKVELLPENSEFKPIVVDLRQQSFTIEGLAVGVIRNGDWL
IC50: 3800 nM

B2: His-LexA K156A (natural protein)
chain: B1 chain with P89L, W92Q, A152E
IC50: 500 nM
